Experimental findings from patent US7985736B2, “High throughput screen utilizing newly discovered intramolecular neuronal calcium channel interactions to discover new analgesics” (The John Hopkins University, priority 2004, dated 2011) are described below.

Ends that are not written are not given here.

The target in test [1] is T1, N-type (α1B) Ca2+ channels (Homo sapiens, UniProt Q00975).
T1 construct: transferred by EcoRI and Bgl II sites into the full-length α1B construct; expressed in transfected cells; host or cells: HEK293
T1 sequence (Q00975 whole entry, other chains not shown): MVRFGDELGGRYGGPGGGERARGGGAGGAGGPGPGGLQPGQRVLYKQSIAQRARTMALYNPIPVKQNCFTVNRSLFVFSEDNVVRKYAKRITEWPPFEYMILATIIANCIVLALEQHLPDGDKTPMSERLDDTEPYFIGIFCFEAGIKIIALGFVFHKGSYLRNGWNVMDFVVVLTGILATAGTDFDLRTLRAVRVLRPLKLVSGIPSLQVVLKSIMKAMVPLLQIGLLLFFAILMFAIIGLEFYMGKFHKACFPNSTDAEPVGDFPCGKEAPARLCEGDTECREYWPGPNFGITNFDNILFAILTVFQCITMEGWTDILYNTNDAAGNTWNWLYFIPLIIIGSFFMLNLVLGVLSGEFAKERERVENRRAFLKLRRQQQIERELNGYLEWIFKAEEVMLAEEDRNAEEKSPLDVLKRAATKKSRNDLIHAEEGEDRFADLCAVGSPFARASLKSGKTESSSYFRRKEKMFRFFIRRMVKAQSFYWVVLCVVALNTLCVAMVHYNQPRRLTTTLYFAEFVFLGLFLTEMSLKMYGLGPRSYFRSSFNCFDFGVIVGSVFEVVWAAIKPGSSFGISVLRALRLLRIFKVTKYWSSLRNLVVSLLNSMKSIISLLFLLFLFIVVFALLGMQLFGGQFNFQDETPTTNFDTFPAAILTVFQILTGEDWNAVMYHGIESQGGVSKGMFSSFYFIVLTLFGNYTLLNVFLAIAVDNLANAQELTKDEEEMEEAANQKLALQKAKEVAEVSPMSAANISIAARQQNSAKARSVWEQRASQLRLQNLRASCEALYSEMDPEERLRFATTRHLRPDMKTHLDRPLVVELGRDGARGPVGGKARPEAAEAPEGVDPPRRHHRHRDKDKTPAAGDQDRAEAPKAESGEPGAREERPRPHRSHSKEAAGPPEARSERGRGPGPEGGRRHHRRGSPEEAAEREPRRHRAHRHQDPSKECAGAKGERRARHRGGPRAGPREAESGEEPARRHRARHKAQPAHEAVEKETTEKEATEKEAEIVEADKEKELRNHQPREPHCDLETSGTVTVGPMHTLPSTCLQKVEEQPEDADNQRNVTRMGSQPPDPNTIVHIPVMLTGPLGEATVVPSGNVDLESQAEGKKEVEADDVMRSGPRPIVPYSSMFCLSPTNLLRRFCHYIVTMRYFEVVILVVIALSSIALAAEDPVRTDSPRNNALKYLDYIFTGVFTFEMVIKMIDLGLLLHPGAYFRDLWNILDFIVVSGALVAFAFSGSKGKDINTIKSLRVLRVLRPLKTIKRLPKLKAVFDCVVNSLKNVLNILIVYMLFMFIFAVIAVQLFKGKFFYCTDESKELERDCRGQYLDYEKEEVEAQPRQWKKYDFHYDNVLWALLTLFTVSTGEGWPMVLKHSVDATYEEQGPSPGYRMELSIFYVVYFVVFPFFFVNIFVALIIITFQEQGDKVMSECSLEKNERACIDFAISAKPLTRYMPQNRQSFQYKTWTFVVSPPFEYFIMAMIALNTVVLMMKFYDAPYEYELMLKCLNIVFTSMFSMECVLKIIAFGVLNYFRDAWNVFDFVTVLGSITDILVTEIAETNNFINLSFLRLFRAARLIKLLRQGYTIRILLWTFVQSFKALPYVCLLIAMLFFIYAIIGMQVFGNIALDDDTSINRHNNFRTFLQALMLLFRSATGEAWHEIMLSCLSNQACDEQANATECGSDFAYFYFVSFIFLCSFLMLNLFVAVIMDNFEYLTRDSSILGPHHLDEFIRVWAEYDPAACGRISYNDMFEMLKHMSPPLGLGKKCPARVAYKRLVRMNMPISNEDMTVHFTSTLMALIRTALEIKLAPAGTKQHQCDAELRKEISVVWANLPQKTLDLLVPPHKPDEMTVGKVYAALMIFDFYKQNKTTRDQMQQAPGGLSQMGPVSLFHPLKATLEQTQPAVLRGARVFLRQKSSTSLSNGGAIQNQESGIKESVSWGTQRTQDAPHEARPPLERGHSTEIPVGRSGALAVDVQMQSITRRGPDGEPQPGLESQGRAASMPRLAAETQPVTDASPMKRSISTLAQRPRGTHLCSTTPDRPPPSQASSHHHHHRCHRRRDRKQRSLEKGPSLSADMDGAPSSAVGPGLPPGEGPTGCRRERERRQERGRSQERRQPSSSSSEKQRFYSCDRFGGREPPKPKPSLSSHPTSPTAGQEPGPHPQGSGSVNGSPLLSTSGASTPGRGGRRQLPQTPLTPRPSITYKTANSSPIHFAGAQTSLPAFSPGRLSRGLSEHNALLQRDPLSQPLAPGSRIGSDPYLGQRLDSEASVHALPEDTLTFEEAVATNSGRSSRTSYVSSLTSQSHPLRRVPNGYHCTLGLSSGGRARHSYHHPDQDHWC
T1 sequence (P54290 25-944 partner limits assumed, other chains not shown): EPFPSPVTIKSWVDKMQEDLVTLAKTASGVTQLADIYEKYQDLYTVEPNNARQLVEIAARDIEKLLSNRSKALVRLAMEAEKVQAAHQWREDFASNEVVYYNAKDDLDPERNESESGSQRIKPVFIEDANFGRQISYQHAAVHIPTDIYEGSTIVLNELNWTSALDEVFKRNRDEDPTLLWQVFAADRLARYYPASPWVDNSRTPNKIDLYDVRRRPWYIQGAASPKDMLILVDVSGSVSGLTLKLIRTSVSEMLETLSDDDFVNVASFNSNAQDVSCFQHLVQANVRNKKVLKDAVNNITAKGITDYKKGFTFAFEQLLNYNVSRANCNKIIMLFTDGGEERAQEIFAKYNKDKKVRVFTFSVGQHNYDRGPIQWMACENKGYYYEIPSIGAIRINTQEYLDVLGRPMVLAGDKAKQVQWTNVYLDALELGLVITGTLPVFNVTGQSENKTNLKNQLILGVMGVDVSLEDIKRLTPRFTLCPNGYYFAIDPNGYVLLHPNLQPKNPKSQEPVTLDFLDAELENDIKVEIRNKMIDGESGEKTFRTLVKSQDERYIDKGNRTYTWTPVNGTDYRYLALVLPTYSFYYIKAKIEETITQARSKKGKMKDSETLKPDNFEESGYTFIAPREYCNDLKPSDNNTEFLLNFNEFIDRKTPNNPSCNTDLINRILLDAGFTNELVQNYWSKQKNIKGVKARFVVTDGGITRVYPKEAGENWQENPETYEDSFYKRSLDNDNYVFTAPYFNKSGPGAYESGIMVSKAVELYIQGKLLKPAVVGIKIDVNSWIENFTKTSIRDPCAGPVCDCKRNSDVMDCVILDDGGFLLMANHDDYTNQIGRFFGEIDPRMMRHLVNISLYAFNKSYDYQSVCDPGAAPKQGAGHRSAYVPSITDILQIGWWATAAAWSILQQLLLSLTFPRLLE
T1 sequence (P54290 945-1091 partner limits assumed, other chains not shown): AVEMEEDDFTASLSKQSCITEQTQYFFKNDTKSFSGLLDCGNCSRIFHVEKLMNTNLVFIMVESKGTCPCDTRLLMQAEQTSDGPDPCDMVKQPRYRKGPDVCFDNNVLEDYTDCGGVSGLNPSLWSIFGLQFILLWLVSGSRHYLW
Description: Whole-cell G/Q analysis and prepulse facilitation of recombinant N-type channels coexpressed with peptide in HEK293 cells. The format is cell-based. The following applies: for Effect on G/Q slope (Gmax-Qmax relation), with Gβγ: peptide coexpressed with channels and Gβγ, Gmax after 100 mV prepulse. An excerpt:
FIG. 3A illustrates an approach for N-type channels without Gβγ coexpression. Exemplar currents activated quickly and were barely facilitated by strong prepulse depolarization (FIG. 3A, left). The slight residual prepulse facilitation reflects basal endogenous Gβγ activation. To estimate open probability, two intermediary parameters were specified. First, to gauge the number of channels in a cell (Nchannel), the channel gating current at the reversal potential for ionic current were isolated (FIG. 3A, middle left) (Jones et al., 1999). The area under this current yields the maximal gating charge Qmax, where Qmax=Nchannel×qmax, and qmax is the maximal gating charge per channel. Second, Gmax for a given cell, the maximal ionic current conductance determined as the slope of the peak current-voltage relation at depolarized potentials were determined (FIG. 3A, middle right, line). Here and throughout, current-voltage relations were determined after a 100 mV prepulse, which transiently relieves all G protein inhibition (Colecraft et al., 2000), thus eliminating these inhibitory effects in the estimate of Gmax. Accordingly, Gmax=Nchannel×Po,max×g, where Po,max is the maximal channel open probability at saturating de-polarization, and g is the conductance of a single open channel. In combination, then, a plot of Gmax versus Qmax for multiple cells ([…]) would describe a linear relation with slope equal to Po,max×g/qmax. Because g and qmax are unchanged by G protein modulation (Colecraft et al., 2001; Jones et al., 1997; Patil et al., 1996), this slope (G/Q=0.44±0.03 nS/fC) is proportional to Po,max . . . FIG. 3B documents the supporting results for N-type channels coexpressed with Gβγ. Gmax determined after prepulse de-polarization, when plotted against Qmax, specifies an identical slope to that without Gβγ (FIG. 3B, right, G/Q=0.43±0.04 nS/fC). […] Free NTB peptide with α1B channels. Initially, an NTB-CFP peptide was employed to visually confirm expression was coexpressed. […] By contrast, coexpressing channels with NTB-CFP and Gβγ produced remarkable effects (FIG. 3D). […] More telling were small ionic current amplitudes despite gating current magnitudes on par with controls (FIG. 3D, middle panels). Consequently, there was a significant ^w6-fold depression of the Gmax-Qmax plot (FIG. 3D, right). If NTB-CFP were simply chelating Gβγ (FIG. 2C), the G/Q slope would be unchanged from control. Instead, the suppression of G/Q indicates constitutive inhibition of channel opening.
Cells were transiently transfected and cultured in 10 cm plates (Brody et al., 1997). For 2+Ca^2+ channels, 8 μg was used of each of cDNAs of the desired a1, rat brain β2a (Perez-Reyes et al., 1992), and rat brain a^28 (Tomlinson et al., 1993) subunits; along with 2 μg T-antigen cDNA. N-type α1B, human origin (NM000718); L-type α1C, rabbit (Wei et al., 1991) (X15539). Gβγ coexpressed with 4 μg each of Gβ1 (Sugimoto et al., 1985) and Gγ2 (Gautam et al., 1990). For coexpression of N-terminal peptides, channel subunit cDNA reduced to 6 μg, while adding 14 μg peptide cDNA. For receptor experiments, 0.5 μg cDNA for m2R (below) applied with other cDNAs.
Whole-cell current records were made with Axopatch 200B (Axon Instruments, Calif.), 1-3 days posttransfection. Pipets, 1.5-3 MΩ before 60-75% series resistance compensation. Internal solution: 135 mM CsMeSO4, 5 mM CsCl, 10 mM EGTA, 10 mM HEPES, 1 mM MgCl2, and 4 mM MgATP. External solution: 150 mM TEAMeSO4, 10 mM HEPES, 2 mM CaCl2, and 1 mM MgCl2. During constitutive inhibition (or as noted for some chimeras), 20 mM BaCl2 was substituted for 2 mM CaCl2, and the resulting solution was diluted 1.08×. To compare across external solutions, a conversion factor of 3.18 was used. Currents and conductances with 20 mM Ba^2+ were thus scaled×1/3.18 to facilitate uniform comparison of values, as if all data had been collected with 2 mM Ca^2+. When applied, conversion is denoted by asterisk (*). […]

Another test deals with T2, I-II loop of α1B (I-IIB) (Homo sapiens, UniProt Q00975).
T2 construct: I-IIB(357-482)-pGADT7 & lam-pGBKT7; expressed in transfected cells; host or cells: AH109 yeast
T2 sequence (Q00975 357-482): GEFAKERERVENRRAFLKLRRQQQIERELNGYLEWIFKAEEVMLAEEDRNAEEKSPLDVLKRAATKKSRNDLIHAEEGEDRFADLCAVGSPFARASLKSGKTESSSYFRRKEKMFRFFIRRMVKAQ
Briefly: Yeast two-hybrid assay, NT peptides versus I-IIB. The format is binding. The following applies: NT segment in pGBKT7, I-IIB in pGADT7. An excerpt: (§1) For yeast two-hybrid assays, a PCR fragment encoding one partner was fused, in-frame, with the GAL4 DNA binding domain (BD) in pGBKT7 (Clontech, Palo Alto, Calif.). The other element was fused, in-frame, with the GAL4 activation domain (AD) in pGADT7. For specific residues, see Supplemental Data (section 2). For electrophysiology, NT peptides lacking fluorophore tag were PCR amplified and cloned in pcDNA3. NTB peptide residues, 1-95; NTC residues, […]. Throughout, all segments subject to PCR or QuikChange were verified in their entirety by sequencing.
(§2) The Matchmaker GAL4 Two-Hybrid System 3 was used (Clontech, Palo Alto, Calif.). AH109 yeast were transformed with pGBKT7/pGADT7-based constructs (Yeastmaker Yeast Transformation System 2 kit, Clontech). After 5-8 days, growth on -leucine/-trytophan plates confirmed transformation of both plasmids. If partners interact, GAL4 BD/AD would complex, activating reporter genes (HIS3, ADE2, lacZ, and MEL1), for which assays are detailed in the Supplemental Data (section 2.1).
(§3) As a ‘medium’ stringency assay, expression of the lacZ gene was tested for encoding β-galactosidase, performing a filter lift with application of blue chromogenic substrate (Clontech-Laboratories, 1999). After the filter lift, original plates were re-grown for 2-3 days at 30° C. Filter paper was then used to replicate colonies onto a high stringency plate (-adenine/-histidine/-leucine/-trytophan). These plates were then incubated at 30° C. for 5-8 days. Survival on high stringency plates indicates production of both adenine and histidine, from transcription of the ADE2 and HIS3 genes, respectively. The percentage of colonies that turned blue in the filter lift assay, along with the percentage of colonies that survived on high stringency plates, was recorded for each pairing. Experiments were repeated at least three times. False positives were controlled for by testing each segment in pGBKT7 against empty pGADT7, and each segment in pGADT7 against lamin C in pGBKT7 (lamin C interacts with few proteins). Average sum of these backgrounds was subtracted from B to produce the net interaction parameter ΔB (FIG. 2).

A further test has as its target T3, I-IIB-YFP (Homo sapiens, UniProt Q00975).
T3 construct: I-IIB residues, 357-482; expressed in transfected cells; host or cells: HEK293
Briefly: Live-cell FRET two-hybrid assay versus I-IIB-YFP in HEK293 cells. The format is binding. The following applies: for Kd,EFF / affinity for I-IIB (FRET), in words: relative dissociation constant, HEK293 cells; for FRmax: 1:1 binding-model fit, CFP-tagged peptide versus I-IIB-YFP. An excerpt: To confirm preferential interaction of NTB with I-IIB a live-cell FRET two-hybrid assay was used (Erickson et al., 2003), in which NTB, NTC, I-IIB, and I-IIC were fused to either CFP or YFP, and the resulting fusion constructs expressed pair-wise in mammalian HEK293 cells. Given a Forster distance of ˜50 Å for the CFP/YFP pair (Patterson et al., 2000), the presence of FRET in individual cells would give a strong indication of interpeptide binding in the mammalian intracellular milieu. This indication is generally characterized by a low false-positive rate (Erickson et al., 2003), so that FRET assays provide a useful complement to yeast two-hybrid assays (Allen et al., 1995). […] SCFP (the signal derived from an image obtained with the CFP filter cube) is selective for CFP fluorescence and thereby gives an optical measure of NTB-CFP expression. Analogously, the SYFP signal, derived from preferential excitation and detection of YFP, estimates I-IIB-YFP levels. Finally, the SFRET signal reflects I-IIB-YFP fluorescence stimulated by FRET transfer from NTB-CFP, as well as secondary cross-talk signals. These three signals can be incorporated within a three-cube FRET algorithm to determine the strength of FRET interaction (“FRET ratio,” FR), independently of cross-talk (Erickson et al., 2001). FR adopts a value of unity in the absence of FRET and grows linearly with increasing FRET efficiency (Erickson et al., 2003). FR values for many individual cells are plotted as circles in FIG. 2Eb, with numerous determinations clearly greater than unity. Alternatively, FR values specified by a YFP-photobleaching methodology were also elevated above unity (triangles) (Bastiaens and Jovin, 1996). […] Consistent with yeast two-hybrid assays, then, FRET assays confirmed a selective propensity for NTB and I-IIB segments to associate.
Human m2 muscarinic acetylcholine receptor (AF498916) was engineered to reduce desensitization (Pals-Rylaarsdam and Hosey, 1997). QuikChange (Stratagene, La Jolla, Calif.) introduced cluster mutations, yielding m2R: residues 286-290 (STSVS/AAAVA), residues 307-311 (TVSTS/AVAAA). For FRET assays, base templates were ECFP/EYFP-tagged calmodulin constructs in pcDNA3 (Invitrogen, Carlsbad, Calif.), as described (Erickson et al., 2001). PCR-amplified channel segments or G proteins were substituted for calmodulin via upstream EcoRI and downstream NheI sites, creating in-frame fusions with fluorophore (ECFP/EYFP C-terminal to test molecules). NTC residues, 1-53; I-IIB residues, 357-482; and I-IIC residues, 436-554.
Experiments were performed mostly as previously described (Erickson et al., 2001; Erickson et al., 2003). Briefly, the FRET Ratio (FR) is the fractional increase in YFP emission due to FRET. […] For donor-dequenching analysis, EEFF is calculated as EEFF=^1−CFPpre/CFPpost, where CFPpre and CFPpost are the CFP emissions before/after 3 min YFP photobleaching. FR is determined by FR=(EEFF/[EYFP/ECFP])+1, where EYFP/ECFP is ratio of YFP and CFP molar extinction coefficients through 440 nm excitation bandpass of FRET cube (0.0574). For binding model analysis, Kd,EFF is the effective dissociation constant, related to actual Kd via filter/microscope optical characteristics. […]
Experiments were performed as described previously for the most part (Erickson et al., 2001; Erickson et al., 2003). Specifically, for quantitative analysis, all fluorescence from single cells were isolated through a pinhole in the image plane, and detected by photo-multiplier tube. In all three-cube FRET experiments, CFP levels were below a threshold where spurious, concentration-dependent FRET became significant (Stratton et al., 2004). Similarly, for donor-dequenching experiments, YFP levels were below an analogous threshold. […]

In another test the target is T4, Gβ1 (Bos taurus, UniProt P62871).
T4 construct: expressed in transfected cells; host or cells: AH109 yeast
T4 sequence (P62871 whole entry): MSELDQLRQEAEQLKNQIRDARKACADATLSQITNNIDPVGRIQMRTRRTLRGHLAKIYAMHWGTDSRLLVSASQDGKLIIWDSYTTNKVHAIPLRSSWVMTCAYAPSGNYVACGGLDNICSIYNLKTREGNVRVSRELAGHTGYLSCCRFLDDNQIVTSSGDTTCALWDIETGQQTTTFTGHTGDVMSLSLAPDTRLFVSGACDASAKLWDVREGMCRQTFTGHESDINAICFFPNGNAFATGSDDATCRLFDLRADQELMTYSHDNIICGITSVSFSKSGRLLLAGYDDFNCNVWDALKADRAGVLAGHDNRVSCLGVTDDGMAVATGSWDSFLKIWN
Description: Yeast two-hybrid assay, channel fragments versus Gβ1. The test is classed as binding. Conditions: Gβ1 in pGADT7, channel fragment in pGBKT7.
Source text: as §1, §2
as §3, with “Average sum of these backgrounds was subtracted from B to produce the net interaction parameter ΔB (FIG. 2).” left out

T3 sequence (Q00975 357-482): as the sequence (Q00975 357-482) above

Take “NTB (45-95): NTB subdomain, residues 45-95 (SEQ ID NO.: 2) (KQSIAQRARTMALYNPIPVKQNCFTVNRSLFVFSEDNVVRKYAKRITEWP; listed as Homo sapiens)”: the “Effect on G/Q slope (Gmax-Qmax relation), with Gβγ” value in test [1] is “depressed Gmax-Qmax relations to the same extent as did full NTB”. For the same molecule, the “Interaction with I-IIB (yeast two-hybrid, ΔB)” value with I-II loop of α1B (I-IIB) was “Robust ΔB values”.

Take “NTB (1-44)—CFP: NTB (1-44) fused to CFP (MVRFGDELGGRYGGPGGGERARGGGAGGAGGPGPGGLQPGQRVL; also: fused to CFP)”: in the test with I-IIB-YFP, the “Kd,EFF / affinity for I-IIB (FRET), in words” value (shortened to “Kd,EFF / affinity for I-IIB”) is on record as “no detectable association”.

As for “NTB (56-95)—CFP: NTB (56-95) fused to CFP (MALYNPIPVKQNCFTVNRSLFVFSEDNVVRKYAKRITEWP; also: fused to CFP)”, in the test with I-IIB-YFP, the FRmax worked out at 2.44 and the “Kd,EFF / affinity for I-IIB” value is listed as “affinity equivalent to that of full NTB”.

B1: NTB-CFP: NTB peptide fused to CFP (protein)
chain: MVRFGDELGGRYGGPGGGERARGGGAGGAGGPGPGGLQPGQRVLYKQSIAQRARTMALYNPIPVKQNCFTVNRSLFVFSEDNVVRKYAKRITEWP
modifications: left off: large carriers
With B1, in test [1] (peptide coexpressed with channels, absent Gβγ), the “Effect on G/Q slope and currents, without Gβγ” value is reported as “no differences from control”. Moreover, in the test with I-IIB-YFP, the FRmax turned out to be 3.66 and the “Kd,EFF / affinity for I-IIB” value was “comparable to that for an apoCaM/IQ segment interaction”.

B2: NTB [1-55]: residues 1-55 of NTB (protein)
chain: MKLLSSIEQACDICRLKKLKCSKEKPKCAKCLKNNWECRYSPKTKRSPLTRAHLTEVESRLERLEQLFLLIFPREDLDMILKMDSLQDIKALLTGLFVQDNVNKDAVTDRLASVETDMPLTLRQHRISATSSSEESSNKGQRQLTVSMVRFGDELGGRYGGPGGGERARGGGAGGAGGPGPGGLQPGQRVLYKQSIAQRART
As to B2, the “Interaction with Gβ1 (yeast two-hybrid)” value with Gβ1 was “interacted with Gβ1”.

B3: NTB (Δ45-55): NTB peptide lacking residues 45-55 (protein)
chain: MVRFGDELGGRYGGPGGGERARGGGAGGAGGPGPGGLQPGQRVLMALYNPIPVKQNCFTVNRSLFVFSEDNVVRKYAKRITEWP
modifications: left off: small tags and cut ends
As to B3, in test [1], the “Effect on G/Q slope (Gmax-Qmax relation), with Gβγ” value is listed as “inter-mediate inhibition”. Besides, the “Interaction with I-IIB (yeast two-hybrid, ΔB)” value in the test with I-II loop of α1B (I-IIB) is on record as “partially attenuated association”.
